Test results from publication PMC3141240.

T1: KSHV SOX (alkaline exonuclease) (Kaposi's sarcoma-associated herpesvirus …, UniProt P88925 1-486)
T1 sequence: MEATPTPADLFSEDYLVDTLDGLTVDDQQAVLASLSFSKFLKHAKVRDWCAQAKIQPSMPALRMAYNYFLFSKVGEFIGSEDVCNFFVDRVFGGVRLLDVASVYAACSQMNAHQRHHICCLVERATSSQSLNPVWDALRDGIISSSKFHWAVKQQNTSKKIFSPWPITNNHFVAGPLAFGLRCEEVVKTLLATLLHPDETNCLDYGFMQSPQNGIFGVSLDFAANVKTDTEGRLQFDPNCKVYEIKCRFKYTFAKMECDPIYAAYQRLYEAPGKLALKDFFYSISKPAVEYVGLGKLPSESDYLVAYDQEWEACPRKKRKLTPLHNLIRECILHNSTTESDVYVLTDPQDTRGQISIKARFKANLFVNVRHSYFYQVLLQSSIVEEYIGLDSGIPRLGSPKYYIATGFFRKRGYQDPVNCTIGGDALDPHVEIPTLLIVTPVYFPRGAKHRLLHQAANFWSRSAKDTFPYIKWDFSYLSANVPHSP

B1: dsRNA-5'P (dsRNA)
RNA 1: UGGUUUACAUGUUCCAAUAUU
RNA 2: AAUAUUGGAACAUGUAAACCA
modifications: 5' phosphate on strand 1
B2: ssRNA-5'P (ssRNA)
RNA: UGGUUUACAUGUUCCAAUAUU
modifications: 5' phosphate
B3: dsDNA-5'P (dsDNA)
DNA 1: GGGGATCCTCCCAGTCGACC
DNA 2: GGTCGACTAGGAGGATCCCC
modifications: 5' phosphate on strand 1

Molecular target: T1, KSHV SOX (alkaline exonuclease)
Test: fluorescence anisotropy

Binder	Kd [µM]
B1	95
B2	87
B3	6
